Test results: publication PMC6513753 (Nature chemical biology, 2018)

Biological target: the molecule itself
Assay: crystal structure

B1: nepetalactol-related short-chain dehydrogenase/reductase 3 (NEPS3) from Nepeta mussinii (enzyme)
chain: MANNSVMMKKKLEGKVAIVTGGASGIGEATARLFVKYGARAVVIADIQSELGRSVAESIGKERCSFVQCDVADEEQVKSMIEWTATTYGGLDVMFSNAGVLNSAAQTVKDLDLPLFDKVMRVNTRGAAVCVKQAARKMVELGRGGSIICNAGSSAVRGAHGVTDYVMSKHAVIGLVRSASMQLGAHSIRVNSVSPMAVATPLTRNQGISTPDDVQKFLMPFISLKGVPPTAEQVAEAAAFLGSDEAAFVTGHDLPVDGGVLCMPFLLGSA
stoichiometry N: 4
